Experimental data as given in the supplement of paper PMC9732359.
± gives the uncertainty stated by the source.

Assay: protein stability index of a GFP-peptide fusion (yeast GPS) (PSI 1-4); higher = more stable; sorted into four equal gates, so the index is relative within each strain
Procedure, shortened: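 Tiled 17-residue yeast protein peptides were fused downstream of GFP in a plasmid that also expresses Cherry, and the pooled library was carried in yeast. Mid-log cultures in leucine-free medium were sorted into four equal gates by GFP/Cherry fluorescence ratio, and plasmids from each gate were PCR-amplified and Illumina-sequenced, with reads assigned to strains by barcodes. The protein stability index for each peptide was each gate's read frequency times its gate number, summed.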

Sequence	protein stability index (doa10∆)	protein stability index (pdr5∆)	protein stability index (san1∆)	protein stability index (ubr1∆)
IGVIQLAHYVVTAKLLG [FAS1]	1.51 ± 0.066	1.23 ± 0.04	1.24 ± 0.09	1.35 ± 0.053
SDIESANNQEYDLNFKL [SMC1]	3.12 ± 0.29			
TNHSAAASTPTTTATPH [PGD1]	2.91 ± 0.033	3.026 ± 0.029	2.99 ± 0.027	2.939 ± 0.023
LIGCIPYSKNAVEQLAG [YDL088C/ASM4]	3.08 ± 0.2	3.01 ± 0.14	2.94 ± 0.088	2.92 ± 0.27
EQQLFEIFAFGNIKDLP [CSN9]	2.88 ± 0.076	2.97 ± 0.06	2.96 ± 0.035	2.86 ± 0.035
LNKFKKAIFQFVCRGMA [ECM29]	2.06 ± 0.1	2.08 ± 0.071	2.6 ± 0.11	1.92 ± 0.052
SLAVRSLQDRSSLVRRN [YCS4]	2.4 ± 0.041	2.71 ± 0.047	2.35 ± 0.045	2.59 ± 0.038
EEAPAPTPAASAPAPAA [FAS2]	2.8 ± 0.095	2.95 ± 0.076	2.85 ± 0.091	3.02 ± 0.1
EHIKEGSEIAISSLGYR [SWI3]	2.78 ± 0.055	3.02 ± 0.063	2.99 ± 0.05	2.95 ± 0.052
QWRYLYDTQLKVSPEEL [ARP7]	1.98 ± 0.042	1.97 ± 0.042	2.08 ± 0.056	1.67 ± 0.049
TKVNNQLIKVAVHNGDR [RPL9B]	1.92 ± 0.074	1.52 ± 0.06	1.78 ± 0.086	2.4 ± 0.029
NPFTSATSSTNANAGLF [YOR098C/NUP1]	2.72 ± 0.077	2.84 ± 0.1	2.82 ± 0.093	3.31 ± 0.074
VKTKTIELIDYDKLPAG [RET1]	2.98 ± 0.12	3.42 ± 0.13	2.67 ± 0.19	2.95 ± 0.082
SVSSPIELNFDAVKDFK [QCR2]	1.89 ± 0.069	1.67 ± 0.065	2.5 ± 0.09	1.57 ± 0.053
RGGGHHSFEDAHTPMLQ [FAS1]	3.3 ± 0.26	3.48 ± 0.21		
ESSNEAKKTIQNPLNKS [SIR4]	3.12 ± 0.071	2.76 ± 0.059	2.95 ± 0.047	3.11 ± 0.05
GNMGITTEMLDKLMVTS [MED6]	3.36 ± 0.1	3.55 ± 0.1	3.26 ± 0.068	3.07 ± 0.11
TLASLIRYNSVEIQEVP [RPC82]	2.62 ± 0.073	2.59 ± 0.051	2.48 ± 0.12	2.54 ± 0.077
LNARMFLKYYGAHKFLD [SIR2]	1.89 ± 0.092	1.68 ± 0.097	1.21 ± 0.12	1.69 ± 0.066
VLVGSCAYTGTGDVLLI [RPN1]	3.13 ± 0.094	3.35 ± 0.067	3.41 ± 0.13	3.1 ± 0.075
SENAPSASSKEFNFTNL [YAR002W/NUP60]	2.83 ± 0.052	2.94 ± 0.062	2.88 ± 0.051	2.99 ± 0.056
ATDISGELRDYIEDFLL [YJR042W/NUP85]	3.31 ± 0.1	3.31 ± 0.081	3.22 ± 0.056	3.3 ± 0.041
LSTRAGGLGLNLQTADT [SNF2]	2.75 ± 0.084	2.7 ± 0.068	2.7 ± 0.076	3.2 ± 0.058
SVKESTGMSSMSPFLRK [SRB4]	3.42 ± 0.14	2.6 ± 0.23	2.1 ± 0.25	3.15 ± 0.079
GLESQIQEIKESVELPL [RPT2]	2.11 ± 0.087	2.3 ± 0.073	2.48 ± 0.067	2.83 ± 0.072
AKRNLDANPSSQIIARN [SMC2]	2.49 ± 0.083	2.79 ± 0.076	3.09 ± 0.095	2.92 ± 0.065
LSYISALGMMTRISSQF [RET1]	1.41 ± 0.063	1.34 ± 0.057	1.43 ± 0.16	1.14 ± 0.054

Sequence	protein stability index (doa10∆)	protein stability index (pdr5∆)	protein stability index (san1∆)	protein stability index (ubr1∆)
NNNGLPQNGNINNNINI [GAL11]	3.13 ± 0.05	3.29 ± 0.071	3.39 ± 0.044	3.11 ± 0.048
ILPQQSKLKLKNLLRKN [ECM29]	2.39 ± 0.089	1.79 ± 0.051	2.01 ± 0.07	2.25 ± 0.074
FQLLEPLSTYNKNGNAV [PGD1]	2.81 ± 0.058	2.93 ± 0.057	2.77 ± 0.05	2.74 ± 0.036
NENPINKIMTNQINSFW [NUT1]	2.5 ± 0.065	2.66 ± 0.064	2.43 ± 0.054	2.9 ± 0.042
NLFKINSIDVPIRINST [YMR129W/POM152]	1.89 ± 0.044	2.2 ± 0.042	2.02 ± 0.058	2.17 ± 0.033
SVQNLDQLLTDLIETSF [NUT1]	2.9 ± 0.15	2.64 ± 0.1	2.94 ± 0.066	2.85 ± 0.11
RNFDTHENYIQDDDFPL [MCD1]	2.92 ± 0.06	2.8 ± 0.053	2.85 ± 0.048	2.91 ± 0.045
ETLEHNPVALEQKLVDL [BRR2]	2.15 ± 0.092	2.79 ± 0.077	2.43 ± 0.074	2.35 ± 0.11
KVTLNKETQQYELEFDT [BRR2]	3.13 ± 0.058	3.01 ± 0.056	3.15 ± 0.035	3.19 ± 0.038
LKLLVKLYTFLARRTDA [RPL18A]	2.26 ± 0.073	1.99 ± 0.056	1.75 ± 0.065	1.97 ± 0.059
LLNILSGLPTCDYYNTF [RPN2]	2.44 ± 0.1	2.73 ± 0.13	2.03 ± 0.16	2.3 ± 0.095
ARDIISHNFQNAIFQME [PCI8]	2.79 ± 0.063	2.94 ± 0.069	2.75 ± 0.046	2.92 ± 0.05
EDEEEEEEVTDQLEDLR [QCR6]		3.52 ± 0.28	3.47 ± 0.083	3.25 ± 0.089
LDNKGSGEDAEEELWNS [YIL149C/MLP2]	3.31 ± 0.17	2.92 ± 0.14	3.16 ± 0.093	3.22 ± 0.1
IRFVCLSNCLANARDFG [BRR2]	2.09 ± 0.053	1.81 ± 0.052	1.72 ± 0.074	2.24 ± 0.044
VPEFFQTANEKHITVRL [SRP14]	3.02 ± 0.1	2.67 ± 0.11	3.01 ± 0.12	2.56 ± 0.1
TSPSYSPTSPSYSPTSP [RPO21]	2.64 ± 0.045	3 ± 0.038	2.77 ± 0.033	2.81 ± 0.03
INAQGEEIVVVASADYE [PRP8]	2.91 ± 0.09	3.33 ± 0.096	2.78 ± 0.07	2.73 ± 0.04
VRNSFPLDEIPVDVDFN [REC8]	2.71 ± 0.12	2.33 ± 0.096	2.57 ± 0.078	2.99 ± 0.065
GWSLVGRILQNLLHSYM [YML103C/NUP188]	1.85 ± 0.087	1.18 ± 0.06	1.18 ± 0.092	1.05 ± 0.03
LLSIPISCPLIGVIQLA [FAS1]	1.23 ± 0.07	1.27 ± 0.068	1.23 ± 0.12	1.08 ± 0.064
RAKAMKFADGFLIHSGQ [RPS3]	3.4 ± 0.11	3.03 ± 0.093	3.13 ± 0.061	3.22 ± 0.037
RPLKLERGFACIPLVGI [FAS1]	1.69 ± 0.067	1.73 ± 0.048	1.51 ± 0.092	1.69 ± 0.048
DNVDFILSNVDLAMANS [RPB3]	3.07 ± 0.057	3.08 ± 0.054	3.12 ± 0.064	2.97 ± 0.05
DSVTTETGKLLSGLAQR [BRN1]	2.5 ± 0.12	2.87 ± 0.099	2.66 ± 0.15	2.66 ± 0.072
TPAELVGKFLGYVSSLV [FAS1]	1.93 ± 0.064	2.04 ± 0.085	1.73 ± 0.081	2.06 ± 0.055
